Consider one molecule from PMC4598299.

This data set addresses hThumb WT (hTERT thumb/CTE domain) (human, UniProt O14746 943-1132). The data set is described as follows: fluorescence polarization. Background: Fluorescence polarisation rises when a labelled molecule tumbles more slowly, as on binding a larger partner.

Sequence of hThumb WT (hTERT thumb/CTE domain) (O14746 943-1132): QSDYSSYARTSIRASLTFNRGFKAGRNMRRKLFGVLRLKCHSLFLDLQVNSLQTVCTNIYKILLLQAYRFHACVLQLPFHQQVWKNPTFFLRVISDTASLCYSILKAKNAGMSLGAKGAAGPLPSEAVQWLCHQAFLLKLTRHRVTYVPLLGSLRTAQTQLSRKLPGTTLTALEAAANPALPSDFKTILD

B1: hTER CR4/5 (structured_RNA)
RNA: CCCGCCUGGAGGCCGCGGUCCGCCGCGAAGAGUUGGGCUCUGUCAGCCGCGGG
In the case of B1, the dissociation constant Kd (usually a measure of binding affinity in units of concentration) was roughly 400 nM.
